Measurements taken from IntAct's records for PubMed 16968782.

B1: Nephrin (Homo sapiens), O60500-1 (parent)
chain: MALGTTLRASLLLLGLLTEGLAQLAIPASVPRGFWALPENLTVVEGASVELRCGVSTPGSAVQWAKDGLLLGPDPRIPGFPRYRLEGDPARGEFHLHIEACDLSDDAEYECQVGRSEMGPELVSPRVILSILVPPKLLLLTPEAGTMVTWVAGQEYVVNCVSGDAKPAPDITILLSGQTISDISANVNEGSQQKLFTVEATARVTPRSSDNRQLLVCEASSPALEAPIKASFTVNVLFPPGPPVIEWPGLDEGHVRAGQSLELPCVARGGNPLATLQWLKNGQPVSTAWGTEHTQAVARSVLVMTVRPEDHGAQLSCEAHNSVSAGTQEHGITLQVTFPPSAIIILGSASQTENKNVTLSCVSKSSRPRVLLRWWLGWRQLLPMEETVMDGLHGGHISMSNLTFLARREDNGLTLTCEAFSEAFTKETFKKSLILNVKYPAQKLWIEGPPEGQKLRAGTRVRLVCLAIGGNPEPSLMWYKDSRTVTESRLPQESRRVHLGSVEKSGSTFSRELVLVTGPSDNQAKFTCKAGQLSASTQLAVQFPPTNVTILANASALRPGDALNLTCVSVSSNPPVNLSWDKEGERLEGVAAPPRRAPFKGSAAARSVLLQVSSRDHGQRVTCRAHSAELRETVSSFYRLNVLYRPEFLGEQVLVVTAVEQGEALLPVSVSANPAPEAFNWTFRGYRLSPAGGPRHRILSSGALHLWNVTRADDGLYQLHCQNSEGTAEARLRLDVHYAPTIRALQDPTEVNVGGSVDIVCTVDANPILPGMFNWERLGEDEEDQSLDDMEKISRGPTGRLRIHHAKLAQAGAYQCIVDNGVAPPARRLLRLVVRFAPQVEHPTPLTKVAAAGDSTSSATLHCRARGVPNIVFTWTKNGVPLDLQDPRYTEHTYHQGGVHSSLLTIANVSAAQDYALFTCTATNALGSDQTNIQLVSISRPDPPSGLKVVSLTPHSVGLEWKPGFDGGLPQRFCIRYEALGTPGFHYVDVVPPQATTFTLTGLQPSTRYRVWLLASNALGDSGLADKGTQLPITTPGLHQPSGEPEDQLPTEPPSGPSGLPLLPVLFALGGLLLLSNASCVGGVLWQRRLRRLAEGISEKTEAGSEEDRVRNEYEESQWTGERDTQSSTVSTTEAEPYYRSLRDFSPQLPPTQEEVSYSRGFTGEDEDMAFPGHLYDEVERTYPPSGAWGPLYDEVQMGPWDLHWPEDTYQDPRGIYDQVAGDLDTLEPDSLPFELRGHLV
partner: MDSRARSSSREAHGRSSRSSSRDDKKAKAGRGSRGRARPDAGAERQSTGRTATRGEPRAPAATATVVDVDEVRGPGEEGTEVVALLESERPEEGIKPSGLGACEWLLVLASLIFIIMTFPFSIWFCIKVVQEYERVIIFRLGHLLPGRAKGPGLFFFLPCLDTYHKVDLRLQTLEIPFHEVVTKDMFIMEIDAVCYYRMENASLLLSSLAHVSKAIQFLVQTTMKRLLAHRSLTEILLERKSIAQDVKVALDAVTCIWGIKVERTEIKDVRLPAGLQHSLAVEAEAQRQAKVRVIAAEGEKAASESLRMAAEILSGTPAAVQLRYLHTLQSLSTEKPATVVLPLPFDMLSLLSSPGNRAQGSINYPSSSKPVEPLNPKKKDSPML
B2: Nephrin (Homo sapiens), O60500-1 (parent)
chain: B1 chain

Variants of: B1
Settings: with podo_mouse Nphs2, Q91X05

effect of a mutation on the interaction	Variant
disrupting interaction strength	Y1193F

Variants of: B2
Settings: with arrb2_human ARRB2, P32121
Sequence of arrb2_human ARRB2, P32121 (P32121 whole entry): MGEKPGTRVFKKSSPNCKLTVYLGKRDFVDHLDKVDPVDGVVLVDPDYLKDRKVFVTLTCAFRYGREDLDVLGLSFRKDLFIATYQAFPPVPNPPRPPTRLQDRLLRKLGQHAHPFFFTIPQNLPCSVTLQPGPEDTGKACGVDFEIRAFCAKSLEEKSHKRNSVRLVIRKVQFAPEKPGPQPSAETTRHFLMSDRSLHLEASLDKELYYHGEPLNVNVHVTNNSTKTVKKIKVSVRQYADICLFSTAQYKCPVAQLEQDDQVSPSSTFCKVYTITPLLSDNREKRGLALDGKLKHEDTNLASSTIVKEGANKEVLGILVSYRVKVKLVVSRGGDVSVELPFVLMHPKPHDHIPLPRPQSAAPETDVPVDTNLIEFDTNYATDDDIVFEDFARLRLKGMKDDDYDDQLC

effect of a mutation on the interaction	Variant
decreasing interaction strength	Y1193A
